The series addresses T1, Alpha-fetoprotein (AFP) (UniProt P02771 19-609).
T1 sequence: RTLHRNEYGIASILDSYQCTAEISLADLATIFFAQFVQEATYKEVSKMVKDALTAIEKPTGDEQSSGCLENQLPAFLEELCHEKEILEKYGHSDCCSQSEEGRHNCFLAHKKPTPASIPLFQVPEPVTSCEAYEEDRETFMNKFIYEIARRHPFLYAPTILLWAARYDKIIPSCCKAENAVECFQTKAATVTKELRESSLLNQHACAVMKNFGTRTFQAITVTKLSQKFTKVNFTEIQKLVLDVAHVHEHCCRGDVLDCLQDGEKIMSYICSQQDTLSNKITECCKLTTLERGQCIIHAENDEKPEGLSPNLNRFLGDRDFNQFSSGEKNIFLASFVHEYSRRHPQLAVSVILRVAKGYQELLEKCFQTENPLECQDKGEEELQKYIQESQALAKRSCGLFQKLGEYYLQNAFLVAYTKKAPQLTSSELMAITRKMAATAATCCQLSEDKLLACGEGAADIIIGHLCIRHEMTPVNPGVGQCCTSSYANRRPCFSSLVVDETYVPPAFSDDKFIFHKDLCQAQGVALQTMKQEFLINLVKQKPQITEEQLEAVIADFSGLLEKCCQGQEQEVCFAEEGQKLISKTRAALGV
The experiment in a line: electrochemical aptasensor (DPV, CV, EIS); toluidine blue, BSA-blocked PEI-AuNPs electrode; 50 ng/mL AFP lowers DPV current ca. 39 to 26 uA; 10 mM sodium phosphate buffer pH 7.0, 30 min incubation at room temperature; CV in 10 mM PBS pH 7.4 with 5 mM [Fe(CN)6]3-. As to conditions: protein: commercial.

B1: AFP-specific aptamer (75-mer) (ssDNA)
DNA: GTGACGCTCCTAACGCTGACTCAGGTGCAGTTCTCGACTCGGTCTTGATGTGGGTCCTGTCCGTCCGAACCAATC
For the molecule B1, the binding result is “binds”.

The values are drawn from PMC10239980, “A new portable toluidine blue/aptamer complex-on-polyethyleneimine-coated gold nanoparticles-based sensor for label-free electrochemical detection of alpha-fetoprotein”.
